The values that follow come from the supplement of paper PMC10724198.

Data set [1] deals with Saccharomyces cerevisiae. The data set can be described thus: protein stability index of tFT-peptide fusion in deletion strain of DAS1 (PSI (0-1 scale)); higher = more stable (slower turnover). The protocol:
(§1)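 MPS profiling in S. cerevisiae of two library types built from selected 12-aa C-degron peptides (IN1, IN2, LN1, LN3, VN2, R1-R5, W1-W3, Atg1 and Rpa12 C-termini): saturation mutagenesis libraries and C-terminal +1 capping libraries (13 aa). Each peptide is fused to the C-terminus of a sfGFP-mCherry timer, after a GGGS linker. Cells are FACS-sorted into 8 mCherry/sfGFP bins and sequenced. PSI runs from 0 (unstable) to 1 (stable), measured once in wild type and in the das1Δ or doa10Δ background.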

Data set [2] has as its system Saccharomyces cerevisiae. As to the kind of experiment: protein stability index of tFT-peptide fusion in wild type (PSI (0-1 scale)); higher = more stable (slower turnover). Conditions: genetic background: wild type. The protocol: as §1
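For protein stability index of tFT-peptide fusion in deletion strain of DAS1 in this document: PSI is a weighted mean of each variant's read distribution over the sorted stability bins, computed only for variants having over 10 reads in total.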
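For protein stability index of tFT-peptide fusion in wild type in this document: PSI derived as read-weighted mean over the 8 sorting bins, only variants exceeding 10 total reads kept, mCherry placed adjacent to the peptide and sfGFP distal.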

Turning to PPLAASFWRVVG, the protein stability index in the data set on Saccharomyces cerevisiae [1] stood at 0.673; in the data set with Saccharomyces cerevisiae [2], 0.165.
On the same counts, the results for PQKRNHLIKLLN are 0.597 and 0.113.
With PSCAASFWRVVG, the protein stability index with Saccharomyces cerevisiae [1] stood at 0.691; with Saccharomyces cerevisiae [2], 0.154.
In the case of PSEAASFWRVVG, the values for the protein stability index with Saccharomyces cerevisiae [1] and in the data set on Saccharomyces cerevisiae [2] were 0.702 and 0.175, respectively.
In the same order, the values of PSLAANFWRVVG are 0.689 and 0.159.
With PSLAASAWRVVG, the figures for the protein stability index in the data set with Saccharomyces cerevisiae [1] and with Saccharomyces cerevisiae [2] were 0.666 and 0.155, respectively.
In the same order, the values of PSLAASFWEVVG are 0.712 and 0.697.
With PSLAASFWRCVG, the protein stability index stood at 0.674 in the data set with Saccharomyces cerevisiae [1] and 0.144 in the data set on Saccharomyces cerevisiae [2].
Take PSLAASFWRVSG: the figures for the protein stability index with Saccharomyces cerevisiae [1] and in the data set on Saccharomyces cerevisiae [2] were 0.684 and 0.205, respectively.
Consider PSLAASFWRVVGE, for which the protein stability index in the data set with Saccharomyces cerevisiae [1] was determined as 0.668; with Saccharomyces cerevisiae [2], 0.672.
On the same counts, the results for PSLAASFWRVVGG are 0.682 and 0.651.
In the same order, the values of PSLAASFWRVVGM are 0.703 and 0.679.
In the same order, the values of PSLAASFWRVYG are 0.691 and 0.174.
On to PSLAASHWRVVG, for which the protein stability index with Saccharomyces cerevisiae [1] stood at 0.692; in the data set on Saccharomyces cerevisiae [2], 0.158.
Regarding PSLAASNWRVVG, the protein stability index in the data set with Saccharomyces cerevisiae [1] was 0.692; with Saccharomyces cerevisiae [2], 0.22.
On the same counts, the results for PSLAASQWRVVG are 0.668 and 0.184.
Regarding PSLEASFWRVVG, the values for the protein stability index in the data set with Saccharomyces cerevisiae [1] and in the data set on Saccharomyces cerevisiae [2] were 0.673 and 0.121, respectively.
With PSLKASFWRVVG, the protein stability index was 0.678 in the data set on Saccharomyces cerevisiae [1] and 0.147 with Saccharomyces cerevisiae [2].
In the same order, the values of PSLMASFWRVVG are 0.707 and 0.131.
In the same order, the values of PSLWASFWRVVG are 0.697 and 0.103.
On the same counts, the results for PWLAASFWRVVG are 0.717 and 0.0915.
Turning to QRWRVGLWRGAS, the protein stability index in the data set on Saccharomyces cerevisiae [1] worked out at 0.683; in the data set on Saccharomyces cerevisiae [2], 0.345.
In the case of RKHKKGQKQKIN, the protein stability index was found to be 0.574 in the data set with Saccharomyces cerevisiae [1] and 0.121 in the data set with Saccharomyces cerevisiae [2].
On the same counts, the results for RLAQPLPVQFLN are 0.566 and 0.0466.
In the case of RLFQPLPVQFLN, the protein stability index in the data set with Saccharomyces cerevisiae [1] turned out to be 0.658; with Saccharomyces cerevisiae [2] it was 0.034.
On the same counts, the results for RLIGPLPVQFLN are 0.598 and 0.0842.
In the same order, the values of RLIQCLPVQFLN are 0.571 and 0.0457.
Regarding RLIQELPVQFLN, the protein stability index was 0.616 in the data set on Saccharomyces cerevisiae [1] and 0.061 with Saccharomyces cerevisiae [2].
As for RLIQLLPVQFLN, the protein stability index in the data set with Saccharomyces cerevisiae [1] is 0.635; with Saccharomyces cerevisiae [2] it was 0.0564.
RLIQPEPVQFLN: the protein stability index in the data set on Saccharomyces cerevisiae [1] turned out to be 0.61; in the data set on Saccharomyces cerevisiae [2], 0.215.
On the same counts, the results for RLIQPLNVQFLN are 0.575 and 0.0919.
In the same order, the values of RLIQPLPGQFLN are 0.612 and 0.282.
On the same counts, the results for RLIQPLPVMFLN are 0.564 and 0.0639.
On to RLIQPLPVQELN, for which the protein stability index with Saccharomyces cerevisiae [1] is 0.703; with Saccharomyces cerevisiae [2], 0.525.
In the case of RLIQPLPVQFIN, the protein stability index in the data set on Saccharomyces cerevisiae [1] is 0.583; in the data set with Saccharomyces cerevisiae [2], 0.0372.
Turning to RLIQPLPVQFLNF, the protein stability index was 0.659 in the data set on Saccharomyces cerevisiae [1] and 0.462 in the data set with Saccharomyces cerevisiae [2].
Regarding RLIQPLPVQFPN, the results for the protein stability index in the data set with Saccharomyces cerevisiae [1] and in the data set on Saccharomyces cerevisiae [2] were 0.605 and 0.622, respectively.
On the same counts, the results for RLIQPLPVQMLN are 0.606 and 0.0702.
On the same counts, the results for RLIQPLPVQTLN are 0.68 and 0.163.
On the same counts, the results for RLIQPLPVQWLN are 0.641 and 0.0664.
In the case of RLIQPLPVYFLN, the protein stability index with Saccharomyces cerevisiae [1] came to 0.729; in the data set with Saccharomyces cerevisiae [2], 0.0711.
In the same order, the values of RLMQPLPVQFLN are 0.572 and 0.1.
In the same order, the values of RLRQPLPVQFLN are 0.593 and 0.0588.
RLTQPLPVQFLN: the protein stability index in the data set on Saccharomyces cerevisiae [1] is 0.857; in the data set on Saccharomyces cerevisiae [2], 0.0562.
In the same order, the values of RSIQPLPVQFLN are 0.643 and 0.0915.
